In patent publication US20230193513A1 (published 2023):

Molecular target: T1, flag-GLP1R-GFP expressed on CHO cells (UniProt P43220 24-463)
T1 chain: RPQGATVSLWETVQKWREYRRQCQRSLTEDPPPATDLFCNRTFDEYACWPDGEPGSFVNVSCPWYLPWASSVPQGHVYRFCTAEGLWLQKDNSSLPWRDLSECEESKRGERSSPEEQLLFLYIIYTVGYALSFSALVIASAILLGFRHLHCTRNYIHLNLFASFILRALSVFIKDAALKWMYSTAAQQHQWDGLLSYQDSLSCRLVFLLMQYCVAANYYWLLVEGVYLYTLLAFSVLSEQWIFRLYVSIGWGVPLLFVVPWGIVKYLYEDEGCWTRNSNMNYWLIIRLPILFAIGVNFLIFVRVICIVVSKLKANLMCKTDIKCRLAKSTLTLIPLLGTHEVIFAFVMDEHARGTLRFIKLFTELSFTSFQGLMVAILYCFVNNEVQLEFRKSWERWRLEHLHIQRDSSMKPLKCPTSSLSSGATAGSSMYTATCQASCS
Assay: FACS cell binding

EC50: 27.7 nM
B1: GLP1R-242 (antibody)
heavy: QVQLVQSGAEVKKPGSSVKVSCKASGGTFSSYEISWVRQAPGQGLEWMGGIIPILGIANYAQKFQGRVTITADESTSTAYMELSSLRSEDTAVYYCAKHMSMQADTGTFTSDVSSYLEGQAAKEFIAWLVKGEFSSRADLVGDAFDVWGQGTLVTVSSASASTKGPSVFPLAPCSRSTSESTAALGCLVKDYFPEPVTVSWNSGALTSGVHTFPAVLQSSGLYSLSSVVTVPSSNFGTQTYTCNVDHKPSNTKVDKTVERKCCVECPPCPAPPVAGPSVFLFPPKPKDTLMISRTPEVTCVVVDVSHEDPEVQFNWYVDGVEVHNAKTKPREEQFNSTFRVVSVLTVVHQDWLNGKEYKCKVSNKGLPAPIEKTISKTKGQPREPQVYTLPPSREEMTKNQVSLTCLVKGFYPSDIAVEWESNGQPENNYKTTPPMLDSDGSFFLYSKLTVDKSRWQQGNVFSCSVMHEALHNHYTQKSLSLSPG
light: QSVLTQPPSVSAAPGQKVTISCSGSSSNIENNDVSWYQQLPGTAPKLLIYGNDQRPSGIPDRFSGSKSGTSATLGITGLQTGDEADYYCGTWDNTLSAGVFGGGTKLTVLGQPKAAPSVTLFPPSSEELQANKATLVCLISDFYPGAVTVAWKADSSPVKAGVETTTPSKQSNNKYAASSYLSLTPEQWKSHRSYSCQVTHEGSTVEKTVAPTECS
